Assay [1] addresses MUC1 tandem repeat peptide …-T(X)-… with GalNAcalpha (Tn) at T (human). The assay is described as follows: antigen ELISA on Tn-PDTR MUC1 peptide, purified antibody [panel Binding to Tn-MUC1].
The target of assay [2] is MUC1 tandem repeat peptide …-T(X)-… with Galβ1-3GalNAcalpha (TF) at T (human). The assay is described as follows: antigen ELISA on TF-PDTR MUC1 peptide, purified antibody [panel Binding to TF-MUC1]. A general note: ELISA stands for enzyme-linked immunosorbent assay.
Chain of MUC1 tandem repeat peptide …-T(X)-… with Galβ1-3GalNAcalpha (TF) at T (human) (peptide, as listed by the source): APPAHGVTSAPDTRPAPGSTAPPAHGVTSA

Chain of MUC1 tandem repeat peptide …-T(X)-… with GalNAcalpha (Tn) at T (human) (peptide, as listed by the source): as above

Broadly, the EC50 (read off the curve) is the midpoint of the concentration-response curve. Consider PankoMab N54W (antibody), for which the EC50 (read off the curve) was determined as 10 ng/mL in assay [1] and 8 ng/mL in assay [2].

For the origin of these results see US20250257149A1.
